This is an account of results in IntAct's records for PubMed 29769717.

This assay addresses srrt_arath SE (UniProt Q9ZVD0).
Chain of UniProt Q9ZVD0 (Q9ZVD0 whole entry): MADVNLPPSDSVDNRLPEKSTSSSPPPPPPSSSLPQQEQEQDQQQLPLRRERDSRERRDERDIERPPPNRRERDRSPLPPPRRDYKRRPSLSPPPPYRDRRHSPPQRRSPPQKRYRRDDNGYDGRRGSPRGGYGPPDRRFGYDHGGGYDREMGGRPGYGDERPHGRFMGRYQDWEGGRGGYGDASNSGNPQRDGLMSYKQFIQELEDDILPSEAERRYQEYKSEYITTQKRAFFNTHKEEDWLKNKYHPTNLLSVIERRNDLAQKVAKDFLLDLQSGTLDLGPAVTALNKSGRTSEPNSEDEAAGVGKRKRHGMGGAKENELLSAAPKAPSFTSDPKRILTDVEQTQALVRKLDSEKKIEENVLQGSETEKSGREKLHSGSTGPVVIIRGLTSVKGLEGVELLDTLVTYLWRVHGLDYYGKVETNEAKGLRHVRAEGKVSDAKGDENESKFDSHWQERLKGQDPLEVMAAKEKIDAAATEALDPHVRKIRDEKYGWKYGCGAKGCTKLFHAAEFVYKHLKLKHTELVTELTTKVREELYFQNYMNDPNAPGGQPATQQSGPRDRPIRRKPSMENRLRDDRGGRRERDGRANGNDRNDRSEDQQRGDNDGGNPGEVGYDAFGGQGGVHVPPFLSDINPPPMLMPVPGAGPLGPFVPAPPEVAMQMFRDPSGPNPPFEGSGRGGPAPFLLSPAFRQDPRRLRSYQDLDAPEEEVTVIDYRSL

On to “ATP-dependent helicase BRM (Arabidopsis thaliana (Mouse-ear cress)), Q6EVK6 E1747A”, for which the “effect of a mutation on the interaction” value was “disrupting interaction”.
